Data reported in article PMC5580921, “Homeodomain-like DNA binding proteins control the haploid-to-diploid transition in Dictyostelium”.

Legend:
MatA [1] = target: T1, MatA (Dictyostelium discoideum, UniProt Q54HW9 1-107); assay: NMR; 58-bp titration 40-120 uM DNA, 20 uM MatA; fast exchange, very weak, unsaturated; EMSA: 10 mM Tris-HCl pH 7.4, 1 mM EDTA, 20 mM NaCl, 30 min room temperature, 6% polyacrylamide gel in 1x tris-borate. NMR: 25 mM phosphate pH 6, 50 mM NaCl, 50; settings: protein: recombinant; tags: His6-lipoyl domain tag removed by TEV (15N-labeled for NMR); label: none; blunt
T1 sequence: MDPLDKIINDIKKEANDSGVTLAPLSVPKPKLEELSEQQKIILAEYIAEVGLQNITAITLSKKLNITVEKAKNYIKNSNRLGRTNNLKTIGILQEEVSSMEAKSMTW

MatA K72A/K76A = target: T2, MatA K72A/K76A (Dictyostelium discoideum, UniProt D3UFF3 1-107, K72A;K76A); assay: EMSA; EMSA: 10 mM Tris-HCl pH 7.4, 1 mM EDTA, 20 mM NaCl, 30 min room temperature, 6% polyacrylamide gel in 1x tris-borate. NMR: 25 mM phosphate pH 6, 50 mM NaCl, 50; settings: protein: recombinant; tags: His6-lipoyl domain tag removed by TEV; label: none (SYBR Gold stain); blunt
T2 sequence: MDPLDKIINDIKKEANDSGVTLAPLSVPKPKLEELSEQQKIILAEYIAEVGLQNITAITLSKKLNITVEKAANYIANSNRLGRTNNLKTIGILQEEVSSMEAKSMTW

MatB = target: T3, MatB (Dictyostelium discoideum, UniProt D3UFE5 1-107); assay: EMSA; nonspecific; EMSA: 10 mM Tris-HCl pH 7.4, 1 mM EDTA, 20 mM NaCl, 30 min room temperature, 6% polyacrylamide gel in 1x tris-borate. NMR: 25 mM phosphate pH 6, 50 mM NaCl, 50; settings: protein: recombinant; tags: His6-lipoyl domain tag removed by TEV; label: none (SYBR Gold stain); blunt
T3 sequence: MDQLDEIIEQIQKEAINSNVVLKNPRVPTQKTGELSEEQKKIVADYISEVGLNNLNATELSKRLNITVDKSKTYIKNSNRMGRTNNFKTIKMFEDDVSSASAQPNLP

MatB S71A [2] = target: T4, MatB S71A (Dictyostelium discoideum, UniProt D3UFE5 1-107, S71A); assay: EMSA; similar to wild type; EMSA: 10 mM Tris-HCl pH 7.4, 1 mM EDTA, 20 mM NaCl, 30 min room temperature, 6% polyacrylamide gel in 1x tris-borate. NMR: 25 mM phosphate pH 6, 50 mM NaCl, 50; settings: protein: recombinant; tags: His6-lipoyl domain tag removed by TEV (15N-labeled for NMR); label: none (SYBR Gold stain); blunt
T4 sequence: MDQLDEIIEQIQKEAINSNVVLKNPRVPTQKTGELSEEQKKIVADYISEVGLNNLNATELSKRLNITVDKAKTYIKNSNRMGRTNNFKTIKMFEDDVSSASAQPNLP

MatA [3] = target: T1, MatA; assay: EMSA; smear; nonspecific, low affinity; EMSA: 10 mM Tris-HCl pH 7.4, 1 mM EDTA, 20 mM NaCl, 30 min room temperature, 6% polyacrylamide gel in 1x tris-borate. NMR: 25 mM phosphate pH 6, 50 mM NaCl, 50; settings: protein: recombinant; tags: His6-lipoyl domain tag removed by TEV (15N-labeled for NMR); label: none (SYBR Gold stain); blunt
MatA [4] = target: T1, MatA; assay: NMR; 80 uM DNA, 20 uM MatA; CSPs at L32, L35, E69, I75, K76, N77; EMSA: 10 mM Tris-HCl pH 7.4, 1 mM EDTA, 20 mM NaCl, 30 min room temperature, 6% polyacrylamide gel in 1x tris-borate. NMR: 25 mM phosphate pH 6, 50 mM NaCl, 50; settings: protein: recombinant; tags: His6-lipoyl domain tag removed by TEV (15N-labeled for NMR); label: none; blunt
MatB S71A [5] = target: T4, MatB S71A; assay: NMR; 80 uM DNA, 20 uM protein, 1 C; core signals lost by intermediate exchange broadening; EMSA: 10 mM Tris-HCl pH 7.4, 1 mM EDTA, 20 mM NaCl, 30 min room temperature, 6% polyacrylamide gel in 1x tris-borate. NMR: 25 mM phosphate pH 6, 50 mM NaCl, 50; settings: protein: recombinant; tags: His6-lipoyl domain tag removed by TEV (15N-labeled for NMR); label: none; blunt

B1: 58-bp DNA (dsDNA)
DNA 1: GAATCTTGCACGCCCTCGCTCAAGCCTTCGTCACTGGTCCCGCCACCAAACGTTTCGG
DNA 2: CCGAAACGTTTGGTGGCGGGACCAGTGACGAAGGCTTGAGCGAGGGCGTGCAAGATTC
B1: binds (MatA [1]).

B2: EMSA dsDNA with MATalpha2 operator (dsDNA)
DNA 1: CCGAAACGTTTGGTGGCGCATGTAATTCATTTACACGCGCGAGGGCGTGCAAGATTC
DNA 2: GAATCTTGCACGCCCTCGCGCGTGTAAATGAATTACATGCGCCACCAAACGTTTCGG
B2: no binding (MatA K72A/K76A); binds (MatB); binds (MatB S71A [2]). B2: binds (MatA [3]).

B3: 29-bp DNA (dsDNA)
DNA 1: CCGAAACGTTTGGTGGCGGGACCAGTGAC
DNA 2: GTCACTGGTCCCGCCACCAAACGTTTCGG
B3: binds (MatA [4]); binds (MatB S71A [5]).
